Consider 22 sequences from the DeepSol protein solubility set.

The data set can be described thus: soluble on expression in E. coli; label from the status in PepcDB or PDB records.
Turning to “MAEEIQMYDDAASVAFIRNFIPQELKEKMTDDDIVYIVDLIYDFYESRGFMDMAEDSEETVEVDEDELVEYVVKNAARDEVGHFSADEIRFVVQGELEYCESINLFEED”, the “soluble on expression in E. coli” value is listed as “not soluble”.
As for “MAELISKEGNKVEFKVSVPAAEVNRAYDQVWAGLARDVRVPGFRPGKAPRKVIENRVGKGYVESQVRDRLLETHYSQGLRELGLNLVDATVDPQDVQSGQAFEFTVKGETYP”, the entry is “soluble”; as for “MAENRNRKPSDSQVDAIKVPPHSLEAEQSVIGGLLLDNERWDTVAERVVASDFYSRPHRLIFEGVKTILESGKPLDLITLSEHLERHEQLEDVGGFAYLADLAKNTPSAANINAYADIVAERAIVRGLIGVANEIADAGYDPQGRSSEDLIDMAESKVFAIAESRTSENEGPQNVDNILEKTLERIELLYKTPQDGVTGVDTGFTDLNKKTAGLQGSDLVIVAARPSMGKTTFAMNLCENAAMQQDKPVLIFSLEMPAEQLMMRMLASLSRVDQTKIRTGQLDDEDWARISSTMGILMQKKNMYIDDSSGLTPTEVRSRARRVAREHGGLSMIMVDYLQLMRVPSLTDNRTLEIAEISRSLKALAKELNVPVVALSQLNRSLEQRADKRPVNSDLRESGSIEQDADLIMFIYRDEVYHPDSPYKGTAEIIIGKQRNGPIGSVRLTFQGQHSRFDNYAGPAFDIDDE”, “not soluble”.
For “MAEQISHKKSLRVSSLNKDRRLLLREFYNLENEPNKGRQEARIGEKASEAHSGEEQVTDVNIDTEANTEKPVKDDELSATEEDLKEGSEDAEEEIKNLPFKRLVQIHNKLLGKETETNNSIKNTIYENYYDLIKVNDLLKEITNANEDQINKLKQTVESLIKEL” the value was “soluble”; for “MAESRRKYYFPDVTDEQWNDWHWQVLNRIETLDQLKKYVTLTAEEEEGVKESLKVLRMAITPYYLSLIDPENPNCPIRKQAIPTHQELVRAPEDQVDPLSEDEDSPVPGLTHRYPDRVLFLITDKCSMYCRHCTRRRFAGQKDASSPSERIDRCIDYIANTPTVRDVLLSGGDALLVSDERLEYILKRLREIPHVEIVRIGSRTPVVLPQRITPQLVDMLKKYHPVWLNTHFNHPNEVTEEAVEACERMANAGIPLGNQTVLLRGINDCTHVMKRLVHLLVKMRVRPYYIYVCDLSLGIGHFRTPVSKGIEIIENLRGHTSGYAVPTFVVDAPGGGGKIPVMPNYVVSQSPRHVVLRNYEGVITTYTEPENYHEECDCEDCRAGKHKEGVAALSGGQQLAIEPSDLARKKRKFDKN”, “soluble”.
As for “MAEVERQDKYLRQRNKYRFHIIPDGNCLYRAVSKTVYGDQSLHRELREQTVHYIADHLDHFSPLIEGDVGEFIIAAAQDGAWAGYPELLAMGQMLNVNIHLTTGGRLESPTVSTMIHYLGPEDSLRPSIWLSWLSNGHYDAVFDHSYPNPEYDNWCKQTQIQKKRDEELAKSMAISLSKMYIEQNACS”, the entry is “soluble”.
With “MAEVLMYGLSTCPHCKRTLEFLKREGVDFEVIWIDKLEGEERKKVIEKVHSISGSYSVPVVVKGDKHVLGYNEEKLKELIRG”, the “soluble on expression in E. coli” value was “soluble”.
For “MAFAIASALTSTLTLSTSRVQNPTQRRPHVASTSSTGGRLMRERLVVVRAGKEVSSVCEPLPPDRPLWFPGSSPPEWLDGSLPGDFGFDPLGLGSDPDTLKWFAQAELIHSRWAMLAVTGIIIPECLERLGFIENFSWYDAGSREYFADSTTLFVAQMVLMGWAEGRRWADLIKPGSVDIEPKYPHKVNPKPDVGYPGGLWFDFMMWGRGSPEPVMVLRTKEIKNGRLAMLAFLGFCFQATYTSQDPIENLMAHLADPGHCNVFSAFTSH” the value was “soluble”.
For “MAFDISAQDPFSILIAGVDSREDTHAGRSDTLIVLTVNPKEESIKMLSIPRDTRTEIVGRGTDDKINHAYAFGGAQMTIDTVENFLDIPIDHYVSINMDGFTQLVDALGGVSVENSFAFSQNGYQFEEGEIFLETGDEALAYARMRKQDSRGDFGRNDRQRQIVEAVIKQSAQFSSITKAGAILDAVGESVRTDLQLDGMWELQSNYRGAAKNIEQLEITGEGTRINNIYYLIIPQEEIARVQGELKSHLELSLEHHHHHH” the value was “soluble”.
For “MAFGRRTGKDGGKRKAGHAPVQPADEHVRPEDTVVASAAAASGVEDQEELQGPFDIDDFDDPSVAVLARLDLGSVLIPMPAAGQVQVELTESGVPSAVWVITPNGRYSIAAYAAPKTGGLWREVAGELADSLRKDSAKVSIKDGPWGREVIGIAAGVVRFIGVDGYRWMIRCVVNGPQETVDALTEEAREALADTVVRRGDTPLPVRTPLPVHLPEPMAAQLREAAAAQADTQRQAAAGVARRGAQGSAMQQLRSTTGG” the value was “soluble”; for “MAFHMPLKELQPVDTSLPEHVVKGAVVIDKEFTIWNHRAVIPSNALHTVFITINLLEQKLTDVVKMAARSMNLSEDDSYGLMADKPKRFITDDNLNSLGSGFILTLCASPDHYVKRITEILTEGNNISQMENAVKTLDEFSLDPALIEAFYRCSSLELLFSLIRDDRVCMSSTLLSTCLRALSSMLELAVGDFTWKSVPNDVVVSMASLVTGKAKREEANTLLAALQMLEQLVIGDDTTRDWILEEVPIETLIRHVEKSDERIALCALSLMNSMIRRCPDDEKRFELIKSLEVVPFRNAVHSSLLRGGGGVRNLNAIEQLVEVQRSLISAYETSPPTDAEVQKILDIESSEDVSEEIREMWKSQIGEHRCGRLAAISMVQFAEKSPQDLRMLISENTMRIEGGKWQLIPMWMRCCDIAAELFRVIPGRDELDRLIVVLFSTETPFPAVFACIVHLFHRTWREMQAKGGEMEKVACVVLEQLRHVLKRREIQDVEELSADLETFSYRAMQEIWREEQLGKENIQLHSEAVIQLKSKLRPKMEELVRINHLNYLKLGAVFRKPQKSKSLAKLAFWHWKLDASEKMLTITGCDGENYVEGVQRDDIRQVWIKDIADVTNNDEIDRKASSSRFTSSPSTQMLRGIRVQLKTTNDMKEGEVLMALTSDETQSVIWLEGLAELIGSKAVKSETDAMVERMLKMELRVRLLNVKLTNPEEKPEIPPIPDDIKSFISKF”, “not soluble”; for “MAFNKVKIVKGSGGWGGPLIIEPTEKKNKVVYVTGGAKPETAVKIAELTGCELIDGFSQGVKDDEIACVIINCGGTLRCGIYPQKKIPTINIMKTGKSGPLAMFIKEDIYVSGVKPTNVEQ”, “not soluble”.
“MAGDPMAHITRFEAPWFLMISKKQYKWTVRPNAGPHSIEKSIPLAVVIRDYLKLAGTIREAKHIIFDGKVLVDGKVRKDYKYPVGLMDIVSIPSADLYFRVLPDNVRFMRFSKISADEARYKYVRIINKTTIKEGRIQLNLEDGRNILVDKETAKNFKTLMTLKIELPSQQILDSFTISERSYAIFVGGRNVGIHGIVKNINLSKFKSRKYSVITLESRDGNTYQTNIMNVMSIGREKSDLRVDLEHHHHHH”: the “soluble on expression in E. coli” value was “soluble”.
As for “MAGDPMIIYRQYHHEGAPVYEIITKTFQHVSIKCDDSFSDTEIFKLLSLLQDDIDHMKVSLEHHHHHH”, the entry is “not soluble”.
As for “MAGDPMQADLFDAEQTGIRTRLGEQAWVLRGFALPWLDALLPALRAVIAQAPLRHMATPGGFTMSVALTNCGALGWTTDAHGYRYRPDDPQTGLPWPPMPQAFAQLAREAAAQAGFAGFDPDACLVNRYAPGARMSLHQDKNERDFGAPIVSVSLGLPAMFLFGGARRDERPARIPLLHGDVAVWGGVDRLRYHGVMPLAEGQHPLLGRQRINFTLRRAGALEHHHHHH”, the entry is “not soluble”; as for “MAGDPMSATETITTNARVLGADPLVKDGFGEEDMLTLVLPYIKTAREGVLRLGELLETYGTYESNGIAFADTEEIWWLKTIGGHNWIARRVPDDAYVTNPNQLGIDHYEFENPDDYLASPDIRDFINKHHLDLTYSNEHFNPRYAFGSQRDKDHHYNTPRARAMLEHHHHHH”, “not soluble”; as for “MAGDPMTELEMHLLNALEQLQQDYTQRLKDWESPFTDLQHMFELTRQENGQLREQCDDLSQQVQRLAGQVDHLSRLFITNSRLEHHHHHH”, “not soluble”.
For “MAGDPMTEQDIYKLLADGERVTLECKKAQNGVPNSLWETYSAFANTNGGILLLGVYENVAEKDSLMRFTITGVEDADKIRKDLWNTINSREKVNVNLLHDEDVQTISVNGKEVIAINVPRADYNLRPVYINNNLMRGTYRRNHEGDYHCTEQMIKMMVRDAYEDGNDRMFLEYYTMDDIDIPTLEGYRVMFKTNNPEHIWNSLDHKEFLMQLGGYVVNRKDGTEGLTIAGLLMFGKGLPVRERFDYLRMDYIDKSNLIGDQRYSDRLTYDGTWENNLFNFIRMVVPRLTRDIPRPFQMDGIIRKDDTPQHKAVREAFTNMIIHADLMLNGLLRVEKYDDRFVLSNPGLLKLPVEQIYAGGESKARNQRMQHMLRMIGYGENLGSGFPLILSAWNEKHWLKPELVEQPELMQVKLILHIENRVYVTKDVTKDVTKELTERQQIILEFMQADGTITISEMSQKTNVTERTIKRDIESLTEKGILSREGGRKEGRWVIRKILEHHHHHH” the value was “soluble”.
Take “MAGDPMTKQEKIQKTITFVKHILEKDASGHDWYHIERVHKMAISLSEQEGGNRFIIEMAALLHDVADEKLNESEEAGMKKVSDWLEELRVEEEESKHILHIIANMSYKGGHGGTVESLEGKIVQDADRLDALGAIGIARTFAYGGAKGRLMYDPTIPPREEMTKEEYRKNNDPSLNHFYEKLLKLKDLMNTNAAKQEAEIRHLYMEQFIEQFMKEWNAQILEHHHHHH”: the “soluble on expression in E. coli” value is listed as “soluble”.
For “MAGDPMYRVGIDVGGTNTDAVVLQDKTVLAGVKASTTEDVTSGVIEALEKVIDASGIDRARIGAVMIGTTHFTNAVIERRHMDEVAAIRIGLPSGAGLPPMVDWPDDLKEIVGNHGYQVRGGYEFDGREISPLDEDEIVRIAADIRAKALKAAAVTCVFSGINDAMEVRAKEILQDRCPGLPVVMSKDIGRHGLLARESAAIMNASLLSLADRTVAAFGEALKAAGITCPFYITQNDGTLMAADVVRGFPVLTFASGPTNSMRGAAFLTGLKDAVVVDVGGTTSDVGSLSHGFPRQASTTVDIGGVRTNFRMPDVFSIGLGGGSMVVNGDHGLTVGPKSVGYRVRRDALCFGGSTLTATDIAVASGKADVGEKALVSSLDKRLVDAAVNKINDMLEACVERSRISSSPVPVIAVGGGSILMPDRIGNLDVIRPENFAVANAVGAAIAQISGETDRVFSLIDGRTRESALAEAEAEAREKAIAAGAIAETLEVIEREDMPLAYLPGNATRIHVKVVGEMGANHGAAALEHHHHHH” the value was “not soluble”.
For “MAGDPNSMKFMSGKFCVLCGKQNVDLIDSLCVDCYVKSKKLIETPKRVTGKYCKICGAQWIRGKWIRTSATSLASVVEDIIARELGSKMRIDKNVDEFAFDIKSIWKDPSGNSFATIEFRGKVRGKSFSQEAVISLEMERELCDSCFRKKTRYYEAIVQLRSKGKIGVDDKKRAFFESFFSTSIVDNISDVIEGREGVDYYFMSKSVARKLVSMISSIVDVEVNESYQNEKMKNGKREAKLVISLRILEHHHHHH” the value was “not soluble”.
For “MAGDPNSMPVLSIIACGMLEDELVHVLIRDCEIRQLIVVENNNISGFLRKLRSGGLVPRVISLDRVPMLLETGFSPGFKKISKMLMHFHFFRKMNEKIESGAGIKIDVVINLLRLGLHVDLELLKSEVYKNVREMAKFSDGILIFYGTCGHVLGGLERDFADLECPLFFLKDSSGEIVEDCISAALGGNDAYAGAMLECRGKGTIYLTPMWASSWKMLEKESGNRDLNNRYLKNSRYCLAAKIDSGLLYDPYFDRNVEDFALTFGMKIINMSGSSEVAEKSYLAARKAVLRKTAAALEHHHHHH” the value was “not soluble”.
